T1: human OX40-receptor (human, UniProt P43489 29-277)
T1 construct: whole, on cells; also called CD134; ACT-4
T1 sequence (looked up): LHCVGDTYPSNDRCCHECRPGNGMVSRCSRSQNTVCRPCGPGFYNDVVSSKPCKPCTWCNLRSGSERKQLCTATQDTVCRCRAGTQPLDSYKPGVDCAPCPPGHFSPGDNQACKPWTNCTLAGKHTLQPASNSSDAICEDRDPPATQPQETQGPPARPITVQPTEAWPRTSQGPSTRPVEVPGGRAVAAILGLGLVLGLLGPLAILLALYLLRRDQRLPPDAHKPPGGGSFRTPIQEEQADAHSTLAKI

T2: human OX40-Ig fusion protein (human, UniProt P43489 29-214)
T2 construct: extracellular domain; Bought (Alexis Biochemicals); not shown: CH2 and CH3 domains of human IgG1
T2 sequence (looked up): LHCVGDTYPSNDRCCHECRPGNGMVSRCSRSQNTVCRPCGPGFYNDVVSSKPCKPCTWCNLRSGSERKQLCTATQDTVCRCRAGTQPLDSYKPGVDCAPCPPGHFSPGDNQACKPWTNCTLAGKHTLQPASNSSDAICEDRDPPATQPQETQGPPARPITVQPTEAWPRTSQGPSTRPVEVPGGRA


Tests used:
human OX40-receptor [1] = biological target: T1, human OX40-receptor; assay: flow cytometry on tonsil mononuclear cells, M13 anti-phage PE against CD4 FITC
human OX40-receptor [2] = biological target: T1, human OX40-receptor; assay: flow cytometry on OX40-receptor transfected (filled) and mock-transfected (open) PER.C6 cells, anti-human IgG PE, IgG1 at 20 µg/ml
Description: The anti-OX40 receptor IgG1 antibodies were validated for their ability to bind to PER.C6™ cells transfected with human OX40-receptor. To this purpose mock- and human OX40-receptor-transfected cells were stained with the IgG1 antibodies at a concentration of 20 μg/ml at 4° C. Binding of the antibodies called 008, 011, 021 and 023 was visualized using biotinylated goat-anti-human IgG (Fc specific, Caltag) followed by streptavidin-phyco-erythrin (Caltag). The stained cells were analyzed by flow cytometry.

human OX40-receptor [3] = biological target: T1, human OX40-receptor; assay: flow cytometry on tonsil mononuclear cells, M13 anti-phage APC against CD4 FITC
Description: Inflamed tonsils were obtained from patients undergoing routine tonsillectomy. Tonsils were minced and the MNC fraction was isolated by density centrifugation. Flow cytometric analysis of the binding of the anti-OX40-receptor phage antibodies to the OX40+ CD4+ T-cells was performed as described above. The CD4+ T-cells were distinguished from total tonsil MNC using a FITC conjugated antibody against CD4. As shown in FIGS. 3A and 3B the selected anti-human OX40-receptor phage antibodies called SC02008, SC02009, SC02010, SC02011, SC02012 and SC02021 selectively stain a subset of CD4+ T-cells within tonsil and synovial fluid mononuclear cells respectively, while they display minor staining of peripheral blood CD4+ T-cells (FIG. 3C).

[4] = biological target: T2, human OX40-Ig fusion protein; assay: phage ELISA on coated human OX40-Ig, anti-M13 peroxidase, absorbance at 492 nm
Description: Selected phage antibodies that were obtained in the screen described above, were validated in ELISA for specificity. For this purpose, human OX40-Ig was coated to Maxisorp™ ELISA plates. After coating, the plates were blocked in 2% MPBS. The selected phage antibodies were incubated in an equal volume of 4% MPBS. The plates are emptied, washed once in PBS, after which the blocked phages were added. Incubation was allowed to proceed for 1 hour, the plates were washed in PBS containing 0.1% Tween-20 and bound phages were detected using an anti-M13 antibody conjugated to peroxidase. As a control, the procedure was performed simultaneously using a control phage antibody directed against thyroglobulin (De Kruif et al. 1995a and 1995b), which served as a negative control.

human OX40-receptor [5] = biological target: T1, human OX40-receptor; assay: flow cytometry, mix of OX40-receptor transfected (green, PKH67) and control transfected PER.C6 cells, M13 anti-phage PE
Description: In another assay the phage antibodies were analyzed for their ability to bind PER.C6™ cells that recombinantly express human OX40-receptor. To this purpose PER.C6™ cells were transfected with a plasmid carrying a cDNA sequence encoding human OX40-receptor or with the empty vector and stable transfectants were selected using standard techniques known to a person skilled in the art (Coligan et al., 2001). For flow cytometry analysis, phage antibodies were first blocked in an equal volume of 4% MPBS for 15 minutes at 4° C. prior to the staining of the OX40-receptor- and control transfected PER.C6™ cells. The blocked phages were added to a mixture of unlabelled control transfected PER.C6™ cells and OX40-receptor transfected PER.C6™ cells that were labelled green using a lipophylic dye (PKH67, Sigma). The binding of the phage antibodies to the cells was visualized using a biotinylated anti-M13 antibody (Santa Cruz Biotechnology) followed by streptavidin-phycoerythrin (Caltag).

Binder	binding result (human OX40-receptor [2])	binding result [4]	further results
phage antibody SC02022 (scFv) (scFv, selected on OX40+ CD4+ T-cells) scFv: MAEVQLVESGGGLVHPGGSLRLSCAGSGFTFSSYAMHWVRQAPGKGLEWVSAIGTGGGTYYADSVQGRFTISRDNAKNSLYLQMNSLRAEDTAVYYCARYDEPLTIYWFDSWGQGTLVTVSSGGGGSGGGGSGGGGSEIELTQSPATLSLSPGERATLSCRASQSVSSYLAWYQQKPGQAPRLLIYDASNRATGIPARFSGSGSGTDFTLTISSLEPEDFAVYYCQQRSNWPPAFGGGTKVEIKRAA	–	–	binding result (human OX40-receptor [1]): binds
phage antibody SC02023 (scFv) (scFv, selected on OX40+ CD4+ T-cells) scFv: MAEVQLVESGGGLVHPGGSLRLSCAGSGFTFSSYAMHWVRQAPGKGLEWVSAIGTGGGTYYADSVMGRFTISRDNSKNTLYLQMNSLRAEDTAVYYCARYDNVMGLYWFDYWGQGTLVTVSSGGGGSGGGGSGGGGSEIELTQSPATLSLSPGERATLSCRASQSVSSYLAWYQQKPGQAPRLLIYDASNRATGIPARFSGSGSGTDFTLTISSLEPEDFAVYYCQQRSNWPPAFGGGTKVEIKRAA	–	–	binding result (human OX40-receptor [1]): binds
human IgG1 antibody 011 (antibody, V domains shown, Human IgG1 made from scFv SC02011, expressed in PER.C6 cells; also called pgG102-011C01) VH: EVQLVESGGGVVQPGRSLRLSCAASGFTFSDYTMNWVRQAPGKGLEWVSSISGGSTYYADSRKGRFTISRDNSKNTLYLQMNNLRAEDTAVYYCARDRYFRQQNAFDYWGQGTLVTVSS VL: not shown	binds	–	–
phage antibody SC02008 (scFv) (scFv, the phage coat protein fusion is not described) scFv: MAEVQLVESGGGLVQPGGSLRLSCAASGFTFSNYTMNWVRQAPGKGLEWVSAISGSGGSTYYADSVKGRFTISRDNSKNTLYLQMNSLRAEDTAVYYCAKDRYSQVHYALDYWGQGTLVTVLEGTGGSGGTGSGTGTSELDIQMTQSPDSLPVTPGEPASISCRSSQSLLHSNGYNYLDWYLQKAGQSPQLLIYLGSNRASGVPDRFSGSGSGTDFTLKISRVEAEDVGVYYCQQYYNHPTTFGQGTKLEIKRAA	–	binds	binding result (human OX40-receptor [3]): binds
human IgG1 antibody 023 (antibody, V domains shown, Human IgG1 made from scFv SC02023, expressed in PER.C6 cells; also called pgG102-023C01) VH: EVQLVESGGGLVHPGGSLRLSCAGSGFTFSSYAMHWVRQAPGKGLEWVSAIGTGGGTYYADSVMGRFTISRDNSKNTLYLQMNSLRAEDTAVYYCARYDNVMGLYWFDYWGQGTLVTVSS VL: EIVLTQSPATLSLSPGERATLSCRASQSVSSYLAWYQQKPGQAPRLLIYDASNRATGIPARFSGSGSGTDFTLTISSLEPEDFAVYYCQQRSNWPPAFGGGTKVEIKR	binds	–	–
human IgG1 antibody 021 (antibody, V domains shown, Human IgG1 made from scFv SC02021, expressed in PER.C6 cells; also called pgG102-021C01) VH: EVQLVESGGGLVQPRGSLRLSCAASGFTFSSYAMNWVRQAPGKGLEWVAVISYDGSNKYYADSVKGRFTISRDNSKNTLYLQMNSLRAEDTAVYYCAKDRYITLPNALDYWGQGTLVTVSS VL: not shown	binds	–	–
human IgG1 antibody 008 (antibody, V domains shown, Human IgG1 made from scFv SC02008, expressed in PER.C6 cells; also called pgG102-008C01) VH: EVQLVESGGGLVQPGGSLRLSCAASGFTFSNYTMNWVRQAPGKGLEWVSAISGSGGSTYYADSVKGRFTISRDNSKNTLYLQMNSLRAEDTAVYYCAKDRYSQVHYALDYWGQGTLVTVSS VL: not shown	binds	–	–
phage antibody SC02012 (scFv) (scFv) scFv: MAEVQLVESGGGLVKPGGSLRLSCAASGFTFSNDSMNWMRQAPGKGLEWVANINQDGNEKYYADSVKGRFTISRDNSKNSLYLQMNSLRDEDTALYYCARARAAGTIFDYWGQGTLVTVLEGTGGSGGTGSGTGTSELDIQMTQSPSSLSASVGDRVTITCRASQNVSNYLTWYQQKPGKAGKLLIYAASSLQSGVPSRFSGSGSGTDFTLTISSLQPEDFATYYCQQSYFNPATFGQGTKLEIKRAA	–	binds	binding result (human OX40-receptor [5]): binds
phage antibody SC02011 (scFv) (scFv) scFv: MAEVQLVESGGGVVQPGRSLRLSCAASGFTFSDYTMNWVRQAPGKGLEWVSSISGGSTYYADSRKGRFTISRDNSKNTLYLQMNNLRAEDTAVYYCARDRYFRQQNAFDYWGQGTLVTVLEGTGGSGGTGSGTGTSELDIQMTQSPVTLPVTPGEPASISCRSSQSLLHSNGYNYLDWYLQKPGQSPQLLIYLGSNRASGVPDRFSGSGSGTDFTLKISRVEAEDVGVYYCQQYLTAPPTFGQGTKLEIKRAA	–	binds	binding result (human OX40-receptor [5]): binds

— patent US20060281072A1 (CRUCELL HOLLAND B V, published 2006)
